# B1: 1-phosphatidylinositol 4,5-bisphosphate phosphodiesterase gamma-1 (Rattus norvegicus (Rat)), P10686 (parent)
# chain: MAGVGTPCANGCGPSAPSEAEVLHLCRSLEVGTVMTLFYSKKSQRPERKTFQVKLETRQITWSRGADKIEGSIDIREIKEIRPGKTSRDFDRYQEDPAFRPDQSHCFVILYGMEFRLKTLSLQATSEDEVNMWIKGLTWLMEDTLQAATPLQIERWLRKQFYSVDRNREDRISAKDLKNMLSQVNYRVPNMRFLRERLTDFEQRSGDITYGQFAQLYRSLMYSAQKTMDLPFLETNTLRTGERPELCQVSLSEFQQFLLEYQGELWAVDRLQVQEFMLSFLRDPLREIEEPYFFLDELVTFLFSKENSVWNSQLDAVCPETMNNPLSHYWISSSHNTYLTGDQFSSESSLEAYARCLRMGCRCIELDCWDGPDGMPVIYHGHTLTTKIKFSDVLHTIKEHAFVASEYPVILSIEDHCSIAQQRNMAQHFRKVLGDTLLTKPVDIAADGLPSPNQLKRKILIKHKKLAEGSAYEEVPTSVMYSENDISNSIKNGILYLEDPVNHEWYPHYFVLTSSKIYYSEETSSDQGNEDEEEPKEASGSTELHSSEKWFHGKLGAGRDGRHIAERLLTEYCIETGAPDGSFLVRESETFVGDYTLSFWRNGKVQHCRIHSRQDAGTPKFFLTDNLVFDSLYDLITHYQQVPLRCNEFEMRLSEPVPQTNAHESKEWYHASLTRAQAEHMLMRVPRDGAFLVRKRNEPNSYAISFRAEGKIKHCRVQQEGQTVMLGNSEFDSLVDLISYYEKHPLYRKMKLRYPINEEALEKIGTAEPDYGALYEGRNPGFYVEANPMPTFKCAVKALFDYKAQREDELTFTKSAIIQNVEKQDGGWWRGDYGGKKQLWFPSNYVEEMINPAILEPEREHLDENSPLGDLLRGVLDVPACQIAIRPEGKNNRLFVFSISMPSVAQWSLDVAADSQEELQDWVKKIREVAQTADARLTEGKMMERRKKIALELSELVVYCRPVPFDEEKIGTERACYRDMSSFPETKAEKYVNKAKGKKFLQYNRLQLSRIYPKGQRLDSSNYDPLPMWICGSQLVALNFQTPDKPMQMNQALFMAGGHCGYVLQPSTMRDEAFDPFDKSSLRGLEPCVICIEVLGARHLPKNGRGIVCPFVEIEVAGAEYDSTKQKTEFVVDNGLNPVWPAKPFHFQISNPEFAFLRFVVYEEDMFSDQNFLAQATFPVKGLKTGYRAVPLKNNYSEDLELASLLIKIDIFPAKENGDLSPFSGTSLRERASDASSQLFHVRAREGSFEARYQQPFEDFRISQEHLADHFDSRERRAPRRTRVNGDNRL
# B2: 1-phosphatidylinositol 4,5-bisphosphate phosphodiesterase gamma-1 (Rattus norvegicus (Rat)), P10686 (parent)
# chain: B1 chain
# partner: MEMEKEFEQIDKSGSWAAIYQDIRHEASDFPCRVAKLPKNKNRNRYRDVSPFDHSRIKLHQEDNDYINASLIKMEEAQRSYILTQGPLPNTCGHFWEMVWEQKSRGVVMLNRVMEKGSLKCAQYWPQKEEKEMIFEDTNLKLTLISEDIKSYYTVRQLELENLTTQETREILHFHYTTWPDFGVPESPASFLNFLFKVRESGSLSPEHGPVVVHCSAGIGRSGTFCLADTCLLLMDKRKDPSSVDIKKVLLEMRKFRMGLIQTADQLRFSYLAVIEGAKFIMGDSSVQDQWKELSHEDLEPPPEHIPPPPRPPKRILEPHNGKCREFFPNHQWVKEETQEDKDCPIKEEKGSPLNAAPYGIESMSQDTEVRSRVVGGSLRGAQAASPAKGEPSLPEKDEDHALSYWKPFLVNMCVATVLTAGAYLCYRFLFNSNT
# Variants of: B1
# Conditions: with jak2_mouse Jak2, Q62120
row,effect of a mutation on the interaction,Variant
1,disrupting interaction,R586K

# Variants of: B2
# Conditions: with ptn1_human PTPN1, P18031
row,effect of a mutation on the interaction,Variant
1,disrupting interaction,P842K

# Variants of: B2
# Conditions: with ptn1_human PTPN1, P18031
# Remark: another data set of the same source
row,effect of a mutation on the interaction,Variant
1,disrupting interaction,R586K

# From IntAct's records for PubMed 17128263
